# Where “and” joins values, the source holds several entries; their conditions need not be identical. Identical values can stand only once.
# B1: Plastocyanin, chloroplastic wild type, P00289 (protein)
# chain: MATVASSAAVAVPSFTGLKASGSIKPTTAKIIPTTTAVPRLSVKASLKNVGAAVVATAAAGLLAGNAMAVEVLLGGGDGSLAFLPGDFSVASGEEIVFKNNAGFPHNVVFDEDEIPSGVDAAKISMSEEDLLNAPGETYKVTLTEKGTYKFYCSPHQGAGMVGKVTVN
# Settings: Spinacia oleracea, pH 7, Thermal, whole UniProt chain shown
# [1] = DSC, potassium phosphate 10 mM, reversible: No
# [2] = DSC, potassium phosphate 10 mM, reversible: Yes, 90%
# [3] = DSC, potassium phosphate 10 mM, reversible: Yes
# [4] = NMR, phosphate 10 mM, reversible: No
protein,measurement,setting,value
B1,Tm,[1],67.8 °C and 67.2 °C
same,unfolding enthalpy (van 't Hoff),[1],84.6 kcal/mol and 84.1 kcal/mol
same,Tm,[2],71 °C
same,unfolding enthalpy (van 't Hoff),[2],85.6 kcal/mol
same,Tm,[3],71.2 °C
same,unfolding enthalpy (calorimetric),[3],118 kcal/mol
same,unfolding enthalpy (van 't Hoff),[3],82 kcal/mol
same,Tm,[4],67.9 °C
same,unfolding enthalpy (van 't Hoff),[4],115 kcal/mol

# Reference: FireProtDB (doi:10.1021/bi034371e)
